Substrate in this data set: O=P(O)(O)OP(=O)(O)O
Briefly: cells, lysate or membranes. Particulars: 0 mM added NaCl, 100 mM KCl, pH 7.2, 30 °C, Mg2PPi substrate without excess Mg2+, Na+ from Na4PPi present.

B1: AVP1 (Arabidopsis thaliana) (protein)
chain: MVAPALLPELWTEILVPICAVIGIAFSLFQWYVVSRVKLTSDLGASSSGGANNGKNGYGDYLIEEEEGVNDQSVVAKCAEIQTAISEGATSFLFTEYKYVGVFMIFFAAVIFVFLGSVEGFSTDNKPCTYDTTRTCKPALATAAFSTIAFVLGAVTSVLSGFLGMKIATYANARTTLEARKGVGKAFIVAFRSGAVMGFLLAASGLLVLYITINVFKIYYGDDWEGLFEAITGYGLGGSSMALFGRVGGGIYTKAADVGADLVGKIERNIPEDDPRNPAVIADNVGDNVGDIAGMGSDLFGSYAEASCAALVVASISSFGINHDFTAMCYPLLISSMGILVCLITTLFATDFFEIKLVKEIEPALKNQLIISTVIMTVGIAIVSWVGLPTSFTIFNFGTQKVVKNWQLFLCVCVGLWAGLIIGFVTEYYTSNAYSPVQDVADSCRTGAATNVIFGLALGYKSVIIPIFAIAISIFVSFSFAAMYGVAVAALGMLSTIATGLAIDAYGPISDNAGGIAEMAGMSHRIRERTDALDAAGNTTAAIGKGFAIGSAALVSLALFGAFVSRAGIHTVDVLTPKVIIGLLVGAMLPYWFSAMTMKSVGSAALKMVEEVRRQFNTIPGLMEGTAKPDYATCVKISTDASIKEMIPPGCLVMLTPLIVGFFFGVETLSGVLAGSLVSGVQIAISASNTGGAWDNAKKYIEAGVSEHAKSLGPKGSEPHKAAVIGDTIGDPLKDTSGPSLNILIKLMAVESLVFAPFFATHGGILFKYF
For the protein B1, the K0.5 was 0.14 ± 0.08 mM.

Values taken from publication PMC7438732, “The H^+-Translocating Inorganic Pyrophosphatase From Arabidopsis thaliana Is More Sensitive to Sodium Than Its Na^+-Translocating Counterpart From Methanosarcina mazei” (Frontiers in Plant Science, 2020).
